Experimental findings from patent US20240209109A1 are described below.

For orientation: Kd means a measure of binding affinity in units of concentration. Lower therefore signals tighter binding. For orientation: koff means a measure of how fast the partners let go of each other. Higher therefore signals a short-lived complex. For orientation: kon means a measure of how fast the partners come together. High values mean fast association, low ones slow association.

B1: 2p1130 anti-Claudin 18.2/CD40 bispecific antibody (bispecific antibody, part only; not given: Claudin 18.2 Fab arms, constant regions, linker, V domains shown, not shown: another chain or arm of the molecule; a dimerising Fc or GST; small tags and cut ends)
VHH: EVQVVESGGGLVQPGGSLRLTCAASGFSVDDYGIGWFRQAPGREREGVACITPNGLMMNFANTVGSVAGRFSASRDSGENTVSLQMSSLKPEDTAIYFCAHSRDDSCRGSLSDYDDWGQGTQVTVSS
B2: 2p931 anti-Claudin 18.2/CD40 bispecific antibody (bispecific antibody, part only; not given: Claudin 18.2 Fab arms, constant regions, linker, V domains shown, not shown: another chain or arm of the molecule; a dimerising Fc or GST; small tags and cut ends)
VHH: AVQLVESGGGLVQPGGSLRLSCAASGFSFRNYMMNWVRQAPGKGLECLSSITSAGDITSYTESVKGRFTISRDNAKNTLYLQMNSLKPEDTAVYYCAQGGCGNYYRESWGQGTQVTVSS
B3: 2p957 anti-Claudin 18.2/CD40 bispecific antibody (bispecific antibody, part only; not given: Claudin 18.2 Fab arms, constant regions, linker, V domains shown, not shown: another chain or arm of the molecule; a dimerising Fc or GST; small tags and cut ends)
VHH: B2 VHH with A1P, M33I, N35S, C47W, S53N, A54S, D56G, C101S, G102D, E107G
B4: 42p495 anti-Claudin 18.2/CD40 bispecific antibody (bispecific antibody, part only; not given: Claudin 18.2 Fab arms, constant regions, linker, V domains shown, not shown: another chain or arm of the molecule; a dimerising Fc or GST; small tags and cut ends)
VHH: PVQLVESGGNLVQPGGSLRLSCVAPGFTSRNSAMSWVRQAPGKGLEWVSTIYSGKSNTDYADSVKGRFTISTDNAKNTLYLHMNKLKSEDTAVYYCAKGAASDWYVPRDYWGQGTQVTVSS
B5: 42p155 anti-Claudin 18.2/CD40 bispecific antibody (bispecific antibody, part only; not given: Claudin 18.2 Fab arms, constant regions, linker, V domains shown, not shown: another chain or arm of the molecule; a dimerising Fc or GST; small tags and cut ends)
VHH: PSQLVESGGGLVQPGGSLRLSCAASGFAFRSYTMSWVRQAPGKGLEWVSTITHNGAITTYAESAQGRFTISRDNAKNTLYLQMNSLKPEDTAVYYCAQGGGSNYYRESWGQGTQVTVSS
B6: 42p655 anti-Claudin 18.2/CD40 bispecific antibody (bispecific antibody, part only; not given: Claudin 18.2 Fab arms, constant regions, linker, V domains shown, not shown: another chain or arm of the molecule; a dimerising Fc or GST; small tags and cut ends)
VHH: B5 VHH with P1A, S2V, S31R, T50S, H53D, A56S, Y95H
B7: 2p834 anti-Claudin 18.2/CD40 bispecific antibody (bispecific antibody, part only; not given: Claudin 18.2 Fab arms, constant regions, linker, V domains shown, not shown: another chain or arm of the molecule; a dimerising Fc or GST; small tags and cut ends)
VHH: B5 VHH with P1Q, S31R, A56S
B8: 2p1294 anti-Claudin 18.2/CD40 bispecific antibody (bispecific antibody, part only; not given: Claudin 18.2 Fab arms, constant regions, linker, V domains shown, not shown: another chain or arm of the molecule; a dimerising Fc or GST; small tags and cut ends)
VHH: B5 VHH with P1Q, S2V, A28S, S31R, T50A, T52S, H53D, A61T
B9: 3p78 anti-Claudin 18.2/CD40 bispecific antibody (bispecific antibody, part only; not given: Claudin 18.2 Fab arms, constant regions, linker, V domains shown, not shown: another chain or arm of the molecule; a dimerising Fc or GST; small tags and cut ends)
VHH: B5 VHH with S2V, A28T, S31N, T33A
B10: 2p415 anti-Claudin 18.2/CD40 bispecific antibody (bispecific antibody, part only; not given: Claudin 18.2 Fab arms, constant regions, linker, V domains shown, not shown: another chain or arm of the molecule; a dimerising Fc or GST; small tags and cut ends)
VHH: QLHFVESGGGLVQPGGSLRLSCAASGFTLDHYAMGWFRQAPGKEREGVSCISGGGSTRYADSAKGRFTISRDNAKNTVYLQMNSLTPEDTAVYYCAAARLLSRNCVPRDSGSWGQGTQVTVSS
B11: 2p442 anti-Claudin 18.2/CD40 bispecific antibody (bispecific antibody, part only; not given: Claudin 18.2 Fab arms, constant regions, linker, V domains shown, not shown: another chain or arm of the molecule; a dimerising Fc or GST; small tags and cut ends)
VHH: B10 VHH with L2V, H3Q, F4L, A23V, H31Y, Y32F, M34I, A63V
B12: 2p551 anti-Claudin 18.2/CD40 bispecific antibody (bispecific antibody, part only; not given: Claudin 18.2 Fab arms, constant regions, linker, V domains shown, not shown: another chain or arm of the molecule; a dimerising Fc or GST; small tags and cut ends)
VHH: B10 VHH with H31Y, M34I, A63V, R103T

Where a chain is given by its changes, count along the chain named.

Sequence of human CD40-His protein (human) (P25942 21-193 limits assumed): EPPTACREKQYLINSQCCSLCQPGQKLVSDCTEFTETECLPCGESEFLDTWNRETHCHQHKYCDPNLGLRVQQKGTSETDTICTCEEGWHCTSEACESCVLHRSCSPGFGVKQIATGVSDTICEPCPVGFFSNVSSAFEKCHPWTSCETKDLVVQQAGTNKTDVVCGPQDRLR

The assay concerns the target human CD40-His protein (human) (UniProt P25942). As to the kind of experiment: SPR Biacore T200, antibody captured on Protein A, CD40-His injected. Background: In SPR one partner is held on a chip, and binding of the other changes the refractive index at the surface.
For B1, the Kd stood at 2770 nM, the koff was found to be 0.0705 s⁻¹ and the kon is 25400 M⁻¹ s⁻¹.

B2 yielded a Kd of 86.2 nM, a koff of 0.00409 s⁻¹ and a kon of 47400 M⁻¹ s⁻¹.

B3 returned a Kd of 2310 nM, a koff of 0.107 s⁻¹ and a kon of 46400 M⁻¹ s⁻¹.

As for B4, the Kd came out at 935 nM, the koff was determined as 0.0118 s⁻¹ and the kon was 12700 M⁻¹ s⁻¹.

Consider B5, for which the Kd turned out to be 760 nM, the koff stood at 0.0374 s⁻¹ and the kon is 49100 M⁻¹ s⁻¹.

In turn, B6 returned a Kd of 47.5 nM, a koff of 0.00442 s⁻¹ and a kon of 93100 M⁻¹ s⁻¹.

As to B7, the Kd worked out at 90.6 nM, the koff was 0.0084 s⁻¹ and the kon turned out to be 92700 M⁻¹ s⁻¹.

B8 displayed a Kd of 182 nM, a koff of 0.0187 s⁻¹ and a kon of 103000 M⁻¹ s⁻¹.

In the case of B9, the Kd was found to be 2490 nM, the off-rate constant (koff) turned out to be 0.107 s⁻¹ and the kon is 42700 M⁻¹ s⁻¹.

B10: the Kd was 754 nM, the koff turned out to be 0.0447 s⁻¹ and the kon is 59300 M⁻¹ s⁻¹.

The molecule B11 had a Kd of 1030 nM, a koff of 0.045 s⁻¹ and a kon of 43700 M⁻¹ s⁻¹.

Turning to B12, the Kd was determined as 492 nM, the koff came out at 0.0177 s⁻¹ and the kon was 36100 M⁻¹ s⁻¹.
